From the nanobody polyreactivity screen of Harvey et al. (2022)

Test: yeast display, Sf9 membrane polyspecificity reagent, FACS + sequencing; frameworks hold sequencing errors
In short: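 Nanobodies from a synthetic yeast display library (Saccharomyces cerevisiae BJ5465), induced 36–48 hours with galactose, were stained 1 hour at 4 °C with 10% biotinylated, detergent-solubilized Sf9 membrane reagent, enriched on streptavidin microbeads, then FACS-sorted. Anti-HA (expression) and streptavidin (reagent binding) fluorescence set low and high (top ~1%) gates. Polyreactivity labels come from the gate of origin. Genes were colony-PCR amplified, MiSeq 2 × 250 sequenced and filtered by CDR length.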

Row | Sequence | polyreactivity (PSR sort gate)
1 | KVKLVESGGGLVQAGGSLRLSCAASGITSWYYAMGWYRQAPGKERELVAAITSDGSTYYADSVKGRFTISRDNAKNTVYLQMNSLKPEVTAVYYCAAERDYWIPDSYLVGMDFWGLGTQVTVSS | low polyreactivity
2 | QVQLQESGGGMVQAGGSLRLSSAASGYISWADSMGWYRQAPGKERELVAGIGYGSTTYYADSVKGRFTISRDNAKNTAYLQMNSLKPEDTAVYYCSVGWYRDTAYKYWGQGTQVTVRS | low polyreactivity
3 | QVQLVESGGGLVQAGGSLRLICAASGGTFYDYAMGWYRQAPGKERELVAAISASGDSTYYADSVKGRFTISRDNAKNTVYLQMNSLKPEDTAVYSCAAEFTAFDGFDYWGQGTQVTVSS | low polyreactivity
4 | QVQLQESVVCLVQALGSLRLSCAASGNISDYYDMGWYGHAPGKERKFVAGIDFGAITNYADSVKGRFTISRDNAKNTEYMQMSSLKPEDTAVYYCAAGVYDWYAYDYWGQGTQVTVSS | high polyreactivity
5 | QVQLVESGGGLVQAGGSLRLSCAASGFTLGFNARGWYRQAPGKERELVAAITIGGTTYYADSVKGRFTISRDNAKNTVYLQMNSLKPEDTAVYYCAAARFLWFYVYTTRVQRYGYWGQGTQVTVSS | low polyreactivity
6 | QVKLVESGGGLVQAGRSLRLSCAASGFTFSANTMGWYRQAPGKERELVAAITRGGRTYYADSVKGRFTISRDNAKNTVYLQMNSLKPEDTAVYYCAKRATWYTVTREGYWGQGTQVTVTS | high polyreactivity
7 | QVQLVESGGGLVQAGGSLRLSCAASGFTFPTYAMGWYRPAPGKERELVAAITRGGSTYYADSVKGRFTISRDNAKNTVYLQMNSLKPEDTAVYYCAGDDPWYEEDYWGQGTQVTVSS | low polyreactivity
8 | QVQLVESGGGLVQAGGSHRLSCAASGSIFTWNGMGWYRQAPGKERELVAAISNGASTNYADSVKGRFTISRDNAKNTVYLQMNSLKPEDTEVDYCAAKSTGRYDYWGQGTQVTVSS | low polyreactivity
9 | QVQLVESGGGLVQAGGSLRLSCADSGSIIGINAMGWYRQAPGKERELVAANNGGGSTYYADSVKGRFTISRDNAKNSVYLQMNSLKPEDTAVYYCAAEWGTSWYDYWGQGTQVTVSS | low polyreactivity
10 | QVQLVESGVGLVQAGGSLRLSCAASGRTFISNVMGWYRQAPGKERELVAAISGSSGSTRYADSVKGRFTISRDNAKNTVYLQMISLKPEDTAVYYCAARAPWPKWGYYYWGQGTQVTVSS | high polyreactivity
11 | QVQLVESGGCLVQAGCSGRLSCAASGYTLTINVMGWDRQAPGKERELVAAITTSCASTNYADSVKGRFTISRDNAKNSVYLKMNSLKPEDTSVYYCAADYLSFVVVKLYGYWGQRTQVTVSS | low polyreactivity
12 | QVQLVESGGGLVQAGGSLRLSCAASGFIFWVNAMGWYRQAPGKERELVAAISQSGGTTYYADSVKGRFTISRDNAKNTVYFQMNSLKPEDTAVYYCNALWRGHGRYNYWGQGTQVTVSS | low polyreactivity
13 | QVQLVESGGGLVQAGGSLRLSCAASGSIFQGYSMGWYRQAPGKERELVAAITASGGSTYYADSVKGRFTISRDNAKNTVYLQMNSLKPEDTAVYYCATDSYWRQDLYRYEYWGQGTQVTVSS | high polyreactivity
14 | QVQLVESGGGLVQAGGSLRLSCAASGRTFRDNAMGWYRQAPGKERELVAAISSGDRTNYADSVKGRFTISRDNAKNTVYLQMNSLKPEETAVYYCAAVRYNSRVSTTPSEMYYWGQGTQVTVSS | low polyreactivity
15 | QVQLEESGGGLVQAGGSLRLSCAASGSTSTYNAMGWYRQAPGKERELVAAITESGGSTYYADSVKGRFTISRDNAKNTVYLQMNSLKPEDTAVYYCNTGYGLVDFLYGYYYWGQGTQVTVSS | low polyreactivity
16 | QVQLVESGGGLVQAGGSLRLSCAASGSIFYKYMGWNRQAPGKERELVAAISWSGGRTYYADSVKGRFTISRDNAKNTVYLQMNSLKPEDTAVYYCNRVVLWRIGDKAFEYWGQGTQVTVSS | high polyreactivity
17 | QVQLVESGGGLVQAGGSLRLTCAASGRTFGRYAMGWYRQAPGKEMDLVAAIRYTGGSTYADSVKGRFTISRDNAKNTVYLQMNRLKPEETAVYYCNRCGAFNTRNEITRYGYWGQGTQVTVSS | low polyreactivity
18 | QVQLVESGGGLVQAGGSLRLSCAASGRTISYYAMGWYRQAPGKERELVAAITSSGSRTYYADSVKGRFTISRDNAKNTVYLQMNSLKPEDTAVYYCAAGKPYFRYDSWGQGTQVTVSS | high polyreactivity
19 | QVQLVESGGGLVQAGGSLRLSCAASGRIIYNYAMGWYRQAPGKERELVAAISRGGSTNYADSVKGRFTISRDNAKNTVYLQMNSLKPEDTAVYYCAAWTYVWTRGGSPVTVQRYNYWGQGTQVTVSS | high polyreactivity
20 | QVQLVESGGGLVQAGGSLRLSCAASGSFFSTYAMGWYRQAPGKERELVAAISVSGSSTYYADSVKGLFTISRDNAKNTVYLQMNSLKPEDTAVYYCNKAFRSVRPRRRYDYWGQGTQVTVSS | low polyreactivity
21 | QVQLVESGGGLVQAGGSLRLSCAASGFTFSYYVMGLYRQAPGKERELVAAITSGGSTYYADSVKGRFTISRDNAKNTVYLQMNSLKPEDTAVYYCNARTYSRVTRQTYRYRPYDYWGQGTQVTVSS | high polyreactivity
22 | QVQLVESGGGLVQAGGSLRLSCAASGFTFRYYTMGWYRQAPGKERELVARITTGGSTKYADSVKGRFTISRDNAKNTVYLQMNSLKPEDTAVYYCAARQYKWWFSQDGYDYWGQGTQVTVSS | high polyreactivity

Row | Sequence | polyreactivity (PSR sort gate)
23 | QVQLVESGGGLVQAGGSLRLSCAASGSTFDYYVMGWYRQAPGKERELVAAISHNAGSTYYADSVKGRFTISRDNAKNTVYLQMNSLKPEDTAVYYCAAPDYRNGVRYPLDYWGQGTQVTVSS | low polyreactivity
24 | QVQLVESGGGLVQAGGNLRLSCAASGSIFPRNAMGWYRQAPGKERELVAAISWRGGSTYYADSVKGRFTISRDNAKNTVYLQMNSLKPEDTAVYYCAATTYRSRYDYWGQGTQVTVSS | high polyreactivity
25 | QVQLVESGGGLVQAGGSLRLSCAASGSNFSYYTMGWYRRATGKERELVAGITWSGGGTSYADSVKGRFTISRDNAKNTVYVQMNSLKPEDTAVYYCAAVDIGRYYRLDYWGQGTQVTVSS | low polyreactivity
26 | QVQLVESGRGLLQAGGSLRLSCASSGCIFTSYAMGWYRPAPGKVRELVAGITRGGRTYYADSVKGRFTISRDKAKNTVYLQSNSLKPEDTAVYYCAALSSRHFVFTVDYWGQATQVTVSS | high polyreactivity
27 | QVQLVESGGGLVQAGGSLRLSCAASGRTFGYYTMGWYRQAPGKEREFVAAISGSGTITFYADSVKGRFTISRDNAKNTVYLQMNSLKPEDTAVYYCAADYRYGGSRGYRYDYWGQGTQVTVSS | low polyreactivity
28 | QVQLIESGGGLVQAGGSLRLSCAASGLTFYSYAMGWYRQAPGKEREFVAVINWSGGRTYYADSVKGRFTISRDTAKNTVFLQMNSLKPEDTAVYYCAAVRYFASSRRYDYLGQGTQVTVSS | high polyreactivity
29 | QVQLGESGGGLVQAGGSLRLICAASGRTIRQYAMGRYRQAPGKERELVAAIDSGGSTYYADSVKGRFTISRDNAKNTVYLQMNSLKPEYTAVYYCAKGPSWKYYSYTLDYWGQGTQVTVSS | low polyreactivity
30 | QVQLVESGGGLVQAGGSLSLSCADSGLTFRKYAMGWYRQAPGKERELVAAISWSGGSTYYANSVKGRFTISRDNAKNTVYLQMNSLKPEETAVYYCAAVPVHTGSMYWGFTNGYDYWGQGTQVTLSS | low polyreactivity
31 | QDQLVESGGGLVQAGCSLRLTCAASGSTFSYYAMGWYRQAPGKERELVADISWSGGSTYYADSVKGRFTISRDNAKNTVYLQMNSLKAAHTAVYYCAARGGSVLRYGKYYYWGQGTQVTVSS | low polyreactivity
32 | QVQLVESGGGLVQAGGSLRLSCASSGSIFTRYAMGWYRQAPGKERELVAAISRRGGSTYYADSVKGRFTISRDNAKNTVYIQMNSLKPEDTAVYYCYPYYIASTFDYWGQGTQVTVSS | high polyreactivity
33 | QVQLVESGGGLVQAGGSLRLSCAASGSTFGGYVMGWYRQAPGKERELVAAIRRVGRTYYADSVKGRFTISRDNAKNTVYLQMNSLKPEDTAVYYCATSYYLAYRSITPYDYWGQGTQVTVSS | low polyreactivity
34 | QVQLVESGGGIVQAGGSLRLSCAASGFICGHYTMGWYRQAPGKERELVAAITTGGRTYYADSVKGRFTISRDNGKNTVYLQMISLKPEDTAVYYCAARGYIWGQGTPVTVSS | high polyreactivity
35 | QVQLVESGGGLVQAGGSLRLSCAASGITFTFYAMGWYRQAPGKERELVAAISRRGGSTYYADSVKGRFTISRDNAKNTVYLQMNSLKPEDTAVYYCAARGYRPMDYWGHGTQVTVSS | high polyreactivity
36 | QVQLVESGGGLVQAGGSLRLSCAASGITYYNAMGWYRQAAGKERELVARISWSSVSTYYADSVKGRFTISRDNAKNTVYLQMNSLKPEDTAVYYCAAEVRGSDYDYWGQGTQLTVSS | high polyreactivity
37 | QVQLVESGGGLVQAGGSLRLSCAASGSIFISYAMGWYRQAPGKARELVAAISRSGGSTYYADSVKGRFTISRDNAKNTVYLQMNSLKPEDTAVYYCAARSYPGKAGMGYWGQGTQVTVSS | high polyreactivity
38 | QVQLVESGGGLVQAGGSLRLSCAASGSIFSYYVMGWYRQAPGKERELVAAITSSGGSTYYADSVKGRFTISRDNAKNTVYLQMNSLKPEDTAVYYCAAYQRSQYRSYPGYEYWGQGTQVTVSS | high polyreactivity
39 | QVQLVESGGGLVQAGGSLRLSCAASGLIFAQYAMGWYRQAPGKEREFVAAISYSGGNTYYADSVKGRFTISRDNAKNTVYLQMNSLKPEDTAVYYCAADYYWYHYAGWVGQYGYWGQGTQVTVSS | low polyreactivity
40 | QVQLVESGGGLVQAGGSLRLSSAASGRTFTVNAMGSYRQAPGKERELVAAISQRGASTYYADSVKGRFTISRDNAKNTVYLQMNSLKPVDTAVYYCAAHLRYKYDYWGQGTQVTVSS | high polyreactivity
41 | QVQLGDSGGGLVQAGGRLRLSCAASGRTIRPYTMGWYRQAPGNERALVAAITSGGGSTYYADSVKGRFTISRDNAKNTVTLQMHSLKPDDTAVYYCAAPRRERWIDVNQHYSWGQGTQVTVSS | low polyreactivity
42 | QVQLVESGGGLVQAGGSLRLSCAASGYIFAWYAMGWYRQAPGIVRELVAAISRSGGSTYYADSVKGRFTISRDNAKHTDYLQMNSLKPEDTAVYYCNAYSAYDEYDYWGQGTQVTVSS | high polyreactivity
43 | QVQLVESGGGLVQAGGRLRLSCAASGLTFAKYSMGWYRQAPGTERELVAAITASGASTYYADSVKGRFTISRDNAKNTVYLQMNSLKPEDTAVYYCAVRRYYNDYWGQGSQVTVSS | low polyreactivity
